The values below come from US20100247562A1.

Assay [1] has as its target human MUC1 (human) (UniProt P15941). The assay is described as follows: co-immunoprecipitation with anti-HSP70, anti-MUC1 immunoblot, densitometry; lane 6 (taken to be FC/MUC1 fusion cells).
For assay [2] the target is unchanged. As to the kind of experiment: co-immunoprecipitation with anti-HSP70, anti-MUC1 immunoblot, densitometry; lane 4 (taken to be MC38/MUC1 tumor cells). On the technique in general: A western blot detects proteins with antibodies after separation by electrophoresis.

HSP70 (endogenous, immunoprecipitated with anti-HSP70 antibody Ab46 or purified by ADP-agarose from MC38/MUC1 tumor cells or FC/MUC1 DC-tumor fusion cells), sequence (Q61696 2-641): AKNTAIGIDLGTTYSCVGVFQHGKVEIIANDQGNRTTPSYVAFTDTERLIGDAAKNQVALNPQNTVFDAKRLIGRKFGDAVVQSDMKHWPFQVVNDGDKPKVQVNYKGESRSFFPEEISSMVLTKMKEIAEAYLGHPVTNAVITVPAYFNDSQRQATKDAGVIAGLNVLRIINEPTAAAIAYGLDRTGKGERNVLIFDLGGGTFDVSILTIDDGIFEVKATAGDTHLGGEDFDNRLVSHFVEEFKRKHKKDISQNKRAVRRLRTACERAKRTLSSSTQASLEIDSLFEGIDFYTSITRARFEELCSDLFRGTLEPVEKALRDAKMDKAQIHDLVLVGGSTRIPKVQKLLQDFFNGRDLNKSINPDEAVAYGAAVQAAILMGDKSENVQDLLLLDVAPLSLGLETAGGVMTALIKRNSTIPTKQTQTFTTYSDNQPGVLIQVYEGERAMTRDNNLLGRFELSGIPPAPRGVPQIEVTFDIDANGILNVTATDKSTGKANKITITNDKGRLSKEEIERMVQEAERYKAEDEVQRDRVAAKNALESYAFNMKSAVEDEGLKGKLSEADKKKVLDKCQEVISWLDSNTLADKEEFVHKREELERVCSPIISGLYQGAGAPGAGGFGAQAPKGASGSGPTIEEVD
UniProt P15941, sequence (P15941 24-1255 limits assumed): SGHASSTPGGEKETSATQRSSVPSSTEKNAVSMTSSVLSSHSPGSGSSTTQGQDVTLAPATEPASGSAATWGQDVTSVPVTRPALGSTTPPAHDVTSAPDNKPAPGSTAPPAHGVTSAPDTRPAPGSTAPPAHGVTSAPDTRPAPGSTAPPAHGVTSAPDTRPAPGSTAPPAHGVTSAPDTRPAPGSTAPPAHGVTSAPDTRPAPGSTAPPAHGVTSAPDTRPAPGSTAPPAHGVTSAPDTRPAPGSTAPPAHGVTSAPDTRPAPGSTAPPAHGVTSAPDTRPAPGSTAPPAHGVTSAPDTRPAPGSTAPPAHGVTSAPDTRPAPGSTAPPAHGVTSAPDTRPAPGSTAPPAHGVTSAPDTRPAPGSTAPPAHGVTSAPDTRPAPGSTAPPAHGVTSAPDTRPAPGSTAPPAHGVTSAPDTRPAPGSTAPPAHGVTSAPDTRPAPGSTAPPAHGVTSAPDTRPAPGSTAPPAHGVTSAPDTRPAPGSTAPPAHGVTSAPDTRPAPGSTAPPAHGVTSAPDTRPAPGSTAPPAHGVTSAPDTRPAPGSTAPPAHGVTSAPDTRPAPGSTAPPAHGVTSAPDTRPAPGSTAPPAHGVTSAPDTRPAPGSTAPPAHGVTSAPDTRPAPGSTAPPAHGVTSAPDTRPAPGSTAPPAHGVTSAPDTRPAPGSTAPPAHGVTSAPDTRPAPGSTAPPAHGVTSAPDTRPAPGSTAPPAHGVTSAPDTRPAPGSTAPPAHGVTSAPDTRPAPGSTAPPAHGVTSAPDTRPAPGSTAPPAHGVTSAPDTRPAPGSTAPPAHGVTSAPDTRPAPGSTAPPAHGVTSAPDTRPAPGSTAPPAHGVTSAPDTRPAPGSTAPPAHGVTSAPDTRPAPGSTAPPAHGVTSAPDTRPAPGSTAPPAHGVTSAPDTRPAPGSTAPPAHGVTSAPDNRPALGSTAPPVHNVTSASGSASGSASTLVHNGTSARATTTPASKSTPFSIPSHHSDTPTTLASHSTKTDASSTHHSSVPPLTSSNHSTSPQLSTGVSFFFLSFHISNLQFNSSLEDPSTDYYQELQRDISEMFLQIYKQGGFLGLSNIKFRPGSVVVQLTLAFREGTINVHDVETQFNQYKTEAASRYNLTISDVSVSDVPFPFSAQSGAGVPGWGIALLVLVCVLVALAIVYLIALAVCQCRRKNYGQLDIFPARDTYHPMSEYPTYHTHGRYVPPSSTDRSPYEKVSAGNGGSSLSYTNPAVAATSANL

For “HSP70 (endogenous, immunoprecipitated with anti-HSP70 antibody Ab46 or purified by ADP-agarose from MC38/MUC1 tumor cells or FC/MUC1 DC-tumor fusion cells)”, the relative density of MUC1 (lane 6) with human MUC1 (human) [1] amounted to 41.5%. This substance gave a relative density of MUC1 (lane 4) with human MUC1 (human) [2] of 10.7%.
